For assay [1], the target named is RSV G中央保守域(CCD)生物素结合的肽 SYM-1706 (RSV). Nature of the assay: ELISA, biotinylated peptide on avidin plate, mAb titrated. (In general: In an ELISA, binding on a coated surface is turned into a signal by an enzyme label.)
The next assay has as its target 长RSV G肽 (表15). The description is as above.
Assay [2] has as its target RSV株A/长(ATCC目录号VR-26)的G蛋白 (RSV A/长) (UniProt P20895). Nature of the assay: cell-based or functional assay.

B1: CB017.5L (antibody, V domains shown)
VH: QVQLVESGGGVVQPGRSLRLSCSASGFTFSVYAMHWVRQAPGQGLEWVAIIWYDGSNKYYADSVKGRFTISRDNSKETLYLQMNSLRVEDTAVYYCARDPIVGHTRDGLDVWGQGTTVTVSS
VL: SYELTQPPSVSVSPGQTARVTCSGDAMAEQYTYWYQQKPGQAPVLIIFKDTERPSGIPERFSGSSSGTTVTLTISGVQTEDEADYYCQSTDSSGTSWVFGGGTKLTVL
Broadly, the IC50 is the concentration that gives 50% inhibition. A low value points to greater potency in that assay. For the molecule B1, the IC50 (in assay [1]; with 长RSV G肽 (表15)) was 0.02 µg/mL each time.

B2: CR9505 (antibody, from another filing, V domains shown)
VH: EVQLQQSGPELVKPGTSVKISCKASGYSFTGFTMNWVKQSHGKNLEWFGLINPFNGNTGYNQKFKGKATLTVDKSSSTAFMELLSLTSEDSAVYYCARSGKSYDYEAWFTYWGQGTLVTVSA
VL: DIVMTQTTLSLPVSLGNQASISCRSSQTIVHTNGNTYLEWYLQKPGQSPKLLIYKVSNRFSGVPDRFSGSGSGTDFILNISRVEAEDLGVYYCFQGSHVPFTFGSGTKLEIKR
B2: in assay [2], the IC50 (空斑减少分析, 50%中和空斑形成) is 0.018 µg/mL.

B3: CB030.1 (antibody, V domains shown)
VH: QVQLVQSGAEMKRPGSSVKVSCKASGGTFSTFAINWVRQAPGQGFEWMGGVIPGFDSANYAQKFQGRLTMSADESTSTVYMELSSLRSDDTAVYYCAGNSGYCSGDSCAPNWGPGTLVTVSS
VL: DIVMTQSPLSLPVTPGEPASISCRSSQSLVHSNGYSYLDWYLQKPGQSPQLLIYLGSNRPSGVPDRFSGSGSGTDFTLKISRVEAEDVGVYFCMQNLQTPTFGGGTKVEIK
For B3, the IC50 (in assay [1]; with 长RSV G肽 (表15)) was 0.02 µg/mL each time.
